Conditions in all cases: source organism: Vaccinia virus WR
One assay addresses HLA-A*02:01. Kind of assay: IEDB peptide-MHC binding, cellular MHC/competitive/fluorescence; ≥ and ≤ were set here for values at or beyond the usual limits of such assays.
The target in the next assay is HLA-A*02:02. The assay is described as above.
The target in the next assay is HLA-A*02:03. The assay is described as above.
Assay [1] deals with HLA-A*02:06. Described as above.
Assay [2] addresses HLA-A*68:02. The assay is described as follows: IEDB peptide-MHC binding, purified MHC/competitive/radioactivity; ≥ and ≤ were set here for values at or beyond the usual limits of such assays.
The target of assay [3] is HLA-A*68:02. Kind of assay: IEDB peptide-MHC binding, cellular MHC/competitive/fluorescence; ≥ and ≤ were set here for values at or beyond the usual limits of such assays.
The target of assay [4] is HLA-A*02:06. The assay is described as follows: IEDB peptide-MHC binding, purified MHC/competitive/radioactivity; ≥ and ≤ were set here for values at or beyond the usual limits of such assays.

With ATCALVSDCA, the IC50 stood at 55.8 µM with HLA-A*02:01; 34.7 µM in the assay with HLA-A*02:02; 23.4 µM with HLA-A*02:03; 9.14 µM in the assay with HLA-A*02:06 [1]; 18 nM in the assay with HLA-A*68:02 [2].
AVYFKAKWLT: the IC50 in the assay with HLA-A*02:01 came to 8.89 µM; with HLA-A*02:02, 27.2 µM; with HLA-A*02:03, 8.93 µM; in the assay with HLA-A*02:06 [1], 8.71 µM; with HLA-A*68:02 [2], 605 nM.
In the case of CTEETKRNI, the IC50 with HLA-A*02:01 is at least 70 µM; with HLA-A*02:02, at least 70 µM; with HLA-A*02:03, at least 70 µM; with HLA-A*02:06 [1] it was at least 70 µM; with HLA-A*68:02 [2] it was 3920 nM.
CVDIFTEGKI: the IC50 is 43.2 µM with HLA-A*02:01; at least 70 µM in the assay with HLA-A*02:02; 17.5 µM with HLA-A*02:03; 20.9 µM in the assay with HLA-A*02:06 [1]; 1320 nM in the assay with HLA-A*68:02 [2].
In the same order, the values of CVKYLLDNDI are 13 µM, 31.8 µM, 5.67 µM, 7.58 µM and 1980 nM.
In the same order, the values of DAIKSNNHLT are at least 70 µM, 27.4 µM, 17.9 µM, at least 70 µM and 768 nM.
In the same order, the values of DTCGASINIT are 42.6 µM, 23.6 µM, at least 70 µM, at least 70 µM and 1930 nM.
Regarding DTDIVNNFI, the IC50 with HLA-A*02:01 was 26.2 µM; in the assay with HLA-A*02:02, 9.32 µM; with HLA-A*02:03, 19.4 µM; with HLA-A*02:06 [1], 15.7 µM; in the assay with HLA-A*68:02 [2], 628 nM.
Regarding DTDIVNNFIT, the IC50 in the assay with HLA-A*02:01 is 7.86 µM; with HLA-A*02:02, 8.59 µM; with HLA-A*02:03, 5.59 µM; with HLA-A*68:02 [3], 7.68 µM; with HLA-A*02:06 [4], 2310 nM.
As to DTEFINKFL, the IC50 was at least 70 µM with HLA-A*02:01; 7.42 µM with HLA-A*02:02; 42.7 µM with HLA-A*02:03; at least 70 µM with HLA-A*02:06 [1]; 117 nM with HLA-A*68:02 [2].
With DTIESAKTKI, the IC50 was 58.9 µM with HLA-A*02:01; 47.9 µM with HLA-A*02:02; 50.5 µM with HLA-A*02:03; at least 70 µM with HLA-A*02:06 [1]; 570 nM with HLA-A*68:02 [2].
In the same order, the values of DTSPTKRCRL are at least 70 µM, 12.2 µM, 37.1 µM, 44.6 µM and 1990 nM.
In the same order, the values of DVEKRILNTI are 55.1 µM, 21 µM, 12.6 µM, 10.8 µM and 4400 nM.
In the same order, the values of DVIKSISSI are 32 µM, 63.8 µM, 7.52 µM, 15 µM and 504 nM.
As for DVNSVQFSI, the concentration for half-maximal inhibition (IC50) amounted to 11.5 µM with HLA-A*02:01; 10.4 µM with HLA-A*02:02; 16.2 µM in the assay with HLA-A*02:03; 16.9 µM with HLA-A*02:06 [1]; 26 nM with HLA-A*68:02 [2].
DVSVSVGTGI: the IC50 is at least 70 µM with HLA-A*02:01; 17.9 µM in the assay with HLA-A*02:02; 5.83 µM in the assay with HLA-A*02:03; 22.2 µM in the assay with HLA-A*02:06 [1]; 424 nM with HLA-A*68:02 [2].
In the same order, the values of EAFETQSGA are at least 70 µM, at least 70 µM, at least 70 µM, at least 50 µM and 104 nM.
EALYYVHSL: the IC50 in the assay with HLA-A*02:01 amounted to 17.6 µM; in the assay with HLA-A*02:02, 14.2 µM; with HLA-A*02:03, 5.77 µM; in the assay with HLA-A*02:06 [1], 14.8 µM; with HLA-A*68:02 [2] it was 347 nM.
In the same order, the values of EIVKNIREGT are 11.8 µM, 28.5 µM, 8.53 µM, 60.7 µM and 431 nM.
For ELPVKTDIV, the IC50 stood at 11.1 µM with HLA-A*02:01; 23 µM with HLA-A*02:02; 8.06 µM with HLA-A*02:03; 11.5 µM with HLA-A*02:06 [1]; 3590 nM with HLA-A*68:02 [2].
In the same order, the values of ETAIRAGYSI are 5.99 µM, 25.8 µM, 29.3 µM, 17.8 µM and 134 nM.
As to FANVISKIYT, the IC50 was determined as 15.7 µM with HLA-A*02:01; 7.79 µM with HLA-A*02:02; 5.31 µM in the assay with HLA-A*02:03; 5.49 µM with HLA-A*68:02 [3]; 1660 nM in the assay with HLA-A*02:06 [4].
In the same order, the values of FIDRGSIKI are 6.95 µM, 9.72 µM, 12.2 µM, 48 µM and 4030 nM.

The values above are taken from the Immune Epitope Database (IEDB).
